# Experimental data as given in patent publication US10590182B2, “Binding-triggered transcriptional switches and methods of use thereof” (The Regents of the University of California, priority 2015, dated 2020).
# Columns and labels:
# gamma secretase = assay: Chimeric Notch receiver cell activation by CD19 sender cells with or without gamma secretase inhibitor DAPT; format: cell-based, mouse; conditions: sender cells expressing CD19, 1 mM DAPT
# Text: DAPT is a gamma secretase inhibitor. The data are expressed as GFP^+ “receiver” cells.
# (FIG. 86A) Mouse fibroblasts (L929 line) with anti-CD19/tTA synNotch are cultivated with sender cells expressing Delta, or CD19, or CD19 in the presence of the gamma-secretase inhibitor DAPT. FACS plots of the resulting GFP intensity in receiver cells are shown.
# [1] = tested on: HCT116 colon cancer cells; assay: Sensitivity of cancer cell line to recombinant TRAIL; format: cell-based
# Procedure: (§1) The cells were then harvested and stained with the live/dead stain, SYTOX Blue (Thermo Scientific # S34857) and the fraction of dead cells was determined by flow cytometry on a BD LSR II.
# K562 cells = assay: as above; format: cell-based
# Procedure: as §1
Molecule,GFP+ receiver cells (gamma secretase),cell killing [1],induction of apoptosis (K562 cells)
C[C@H](NC(=O)Cc1cc(F)cc(F)c1)C(=O)NC(C(=O)OC(C)(C)C)c1ccccc1 (stereo partly drawn) [DAPT],"at control, untreated levels",–,–
"soluble TRAIL: recombinant TRAIL, an inducer of apoptosis and a cancer therapeutic (protein, UniProt P50591 39-281, looked up, extracellular domain, recombinant TRAIL, an inducer of apoptosis and a cancer therapeutic) extracellular domain: TNELKQMQDKYSKSGIACFLKEDDSYWDPNDEESMNSPCWQVKWQLRQLVRKMILRTSEETISTVQEKQQNISPLVRERGPQRVAAHITGTRGRSNTLSSPNSKNEKALGRKINSWESSRSGHSFLSNLHLRNGELVIHEKGFYYIYSQTYFRFQEEIKENTKNDKQMVQYIYKYTSYPDPILLMKSARNSCWSKDAEYGLYSIYQGGIFELKENDRIFVSVTNEHLIDMDHEASFFGAFLVG",–,effective at killing,does not induce apoptosis even at high doses
